# Measurements taken from the Human Domainome abundance scans (Beltran et al. 2025).
# ± gives the uncertainty stated by the source.
# Assay: abundance fitness (aPCA) (normalised: wild type 0, dead -1); higher = more abundant; growth selection in yeast, the domain comes from the species named
# Settings: Homo sapiens
row,Substance,abundance fitness
1,"E3 ubiquitin-protein ligase NEDD4-like S230P, Q96PU5",-0.027 ± 0.085
2,"E3 ubiquitin-protein ligase NEDD4-like S230Q, Q96PU5",0.025 ± 0.077
3,"E3 ubiquitin-protein ligase NEDD4-like S230R, Q96PU5",-0.095 ± 0.066
4,"E3 ubiquitin-protein ligase NEDD4-like S230T, Q96PU5",-0.051 ± 0.067
5,"E3 ubiquitin-protein ligase NEDD4-like S230V, Q96PU5",-0.136 ± 0.059
6,"E3 ubiquitin-protein ligase NEDD4-like S230W, Q96PU5",-0.496 ± 0.085
7,"E3 ubiquitin-protein ligase NEDD4-like S230Y, Q96PU5",-0.204 ± 0.12
8,"E3 ubiquitin-protein ligase NEDD4-like S231A, Q96PU5",-0.099 ± 0.075
9,"E3 ubiquitin-protein ligase NEDD4-like S231C, Q96PU5",-0.142 ± 0.09
10,"E3 ubiquitin-protein ligase NEDD4-like S231D, Q96PU5",-0.425 ± 0.11
11,"E3 ubiquitin-protein ligase NEDD4-like S231E, Q96PU5",0.134 ± 0.089
12,"E3 ubiquitin-protein ligase NEDD4-like S231F, Q96PU5",-0.275 ± 0.11
13,"E3 ubiquitin-protein ligase NEDD4-like S231G, Q96PU5",-0.049 ± 0.064
14,"E3 ubiquitin-protein ligase NEDD4-like S231H, Q96PU5",-0.331 ± 0.13
15,"E3 ubiquitin-protein ligase NEDD4-like S231I, Q96PU5",0.087 ± 0.12
16,"E3 ubiquitin-protein ligase NEDD4-like S231K, Q96PU5",-0.273 ± 0.15
17,"E3 ubiquitin-protein ligase NEDD4-like S231L, Q96PU5",0.002 ± 0.088
18,"E3 ubiquitin-protein ligase NEDD4-like S231M, Q96PU5",-0.222 ± 0.08
19,"E3 ubiquitin-protein ligase NEDD4-like S231N, Q96PU5",-0.385 ± 0.12
20,"E3 ubiquitin-protein ligase NEDD4-like S231P, Q96PU5",-0.008 ± 0.08
21,"E3 ubiquitin-protein ligase NEDD4-like S231Q, Q96PU5",0.242 ± 0.14
22,"E3 ubiquitin-protein ligase NEDD4-like S231R, Q96PU5",0.002 ± 0.074
23,"E3 ubiquitin-protein ligase NEDD4-like S231T, Q96PU5",0.139 ± 0.098
24,"E3 ubiquitin-protein ligase NEDD4-like S231V, Q96PU5",-0.062 ± 0.067

row,Substance,abundance fitness
1,"E3 ubiquitin-protein ligase NEDD4-like S231Y, Q96PU5",-0.228 ± 0.11
2,"E3 ubiquitin-protein ligase NEDD4-like T209C, Q96PU5",-0.146 ± 0.067
3,"E3 ubiquitin-protein ligase NEDD4-like T209D, Q96PU5",-0.311 ± 0.072
4,"E3 ubiquitin-protein ligase NEDD4-like T209E, Q96PU5",-0.31 ± 0.078
5,"E3 ubiquitin-protein ligase NEDD4-like T209F, Q96PU5",-0.325 ± 0.083
6,"E3 ubiquitin-protein ligase NEDD4-like T209G, Q96PU5",-0.305 ± 0.062
7,"E3 ubiquitin-protein ligase NEDD4-like T209H, Q96PU5",-0.32 ± 0.11
8,"E3 ubiquitin-protein ligase NEDD4-like T209I, Q96PU5",-0.036 ± 0.088
9,"E3 ubiquitin-protein ligase NEDD4-like T209L, Q96PU5",-0.095 ± 0.073
10,"E3 ubiquitin-protein ligase NEDD4-like T209M, Q96PU5",-0.093 ± 0.1
11,"E3 ubiquitin-protein ligase NEDD4-like T209N, Q96PU5",-0.095 ± 0.092
12,"E3 ubiquitin-protein ligase NEDD4-like T209P, Q96PU5",-0.002 ± 0.059
13,"E3 ubiquitin-protein ligase NEDD4-like T209Q, Q96PU5",-0.21 ± 0.095
14,"E3 ubiquitin-protein ligase NEDD4-like T209R, Q96PU5",-0.096 ± 0.058
15,"E3 ubiquitin-protein ligase NEDD4-like T209S, Q96PU5",0.036 ± 0.073
16,"E3 ubiquitin-protein ligase NEDD4-like T209V, Q96PU5",-0.079 ± 0.067
17,"E3 ubiquitin-protein ligase NEDD4-like T209Y, Q96PU5",-0.649 ± 0.11
18,"E3 ubiquitin-protein ligase NEDD4-like T218A, Q96PU5",-0.045 ± 0.057
19,"E3 ubiquitin-protein ligase NEDD4-like T218C, Q96PU5",-0.031 ± 0.076
20,"E3 ubiquitin-protein ligase NEDD4-like T218D, Q96PU5",-0.347 ± 0.096
21,"E3 ubiquitin-protein ligase NEDD4-like T218E, Q96PU5",-0.122 ± 0.062
22,"E3 ubiquitin-protein ligase NEDD4-like T218F, Q96PU5",-0.028 ± 0.084
23,"E3 ubiquitin-protein ligase NEDD4-like T218G, Q96PU5",-0.146 ± 0.061
24,"E3 ubiquitin-protein ligase NEDD4-like T218H, Q96PU5",-0.017 ± 0.1

row,Substance,abundance fitness
1,"E3 ubiquitin-protein ligase NEDD4-like T218I, Q96PU5",-0.118 ± 0.096
2,"E3 ubiquitin-protein ligase NEDD4-like T218K, Q96PU5",-0.06 ± 0.072
3,"E3 ubiquitin-protein ligase NEDD4-like T218M, Q96PU5",-0.128 ± 0.089
4,"E3 ubiquitin-protein ligase NEDD4-like T218N, Q96PU5",-0.244 ± 0.11
5,"E3 ubiquitin-protein ligase NEDD4-like T218Q, Q96PU5",-0.218 ± 0.095
6,"E3 ubiquitin-protein ligase NEDD4-like T218R, Q96PU5",-0.184 ± 0.058
7,"E3 ubiquitin-protein ligase NEDD4-like T218S, Q96PU5",-0.236 ± 0.07
8,"E3 ubiquitin-protein ligase NEDD4-like T218V, Q96PU5",0.092 ± 0.056
9,"E3 ubiquitin-protein ligase NEDD4-like T218W, Q96PU5",-0.084 ± 0.075
10,"E3 ubiquitin-protein ligase NEDD4-like T218Y, Q96PU5",0.211 ± 0.1
11,"E3 ubiquitin-protein ligase NEDD4-like T219A, Q96PU5",-0.28 ± 0.057
12,"E3 ubiquitin-protein ligase NEDD4-like T219C, Q96PU5",-0.137 ± 0.09
13,"E3 ubiquitin-protein ligase NEDD4-like T219D, Q96PU5",-0.595 ± 0.085
14,"E3 ubiquitin-protein ligase NEDD4-like T219E, Q96PU5",-0.145 ± 0.068
15,"E3 ubiquitin-protein ligase NEDD4-like T219F, Q96PU5",-0.577 ± 0.075
16,"E3 ubiquitin-protein ligase NEDD4-like T219G, Q96PU5",-0.632 ± 0.055
17,"E3 ubiquitin-protein ligase NEDD4-like T219H, Q96PU5",-0.232 ± 0.099
18,"E3 ubiquitin-protein ligase NEDD4-like T219I, Q96PU5",-0.56 ± 0.081
19,"E3 ubiquitin-protein ligase NEDD4-like T219K, Q96PU5",-0.157 ± 0.099
20,"E3 ubiquitin-protein ligase NEDD4-like T219L, Q96PU5",-0.623 ± 0.076
21,"E3 ubiquitin-protein ligase NEDD4-like T219M, Q96PU5",-0.285 ± 0.091
22,"E3 ubiquitin-protein ligase NEDD4-like T219N, Q96PU5",-0.221 ± 0.067
23,"E3 ubiquitin-protein ligase NEDD4-like T219P, Q96PU5",-0.38 ± 0.1
24,"E3 ubiquitin-protein ligase NEDD4-like T219R, Q96PU5",-0.3 ± 0.057

row,Substance,abundance fitness
1,"E3 ubiquitin-protein ligase NEDD4-like T219S, Q96PU5",-0.189 ± 0.086
2,"E3 ubiquitin-protein ligase NEDD4-like T219V, Q96PU5",-0.348 ± 0.063
3,"E3 ubiquitin-protein ligase NEDD4-like T219W, Q96PU5",-0.598 ± 0.075
4,"E3 ubiquitin-protein ligase NEDD4-like T219Y, Q96PU5",-0.451 ± 0.089
5,"E3 ubiquitin-protein ligase NEDD4-like V203A, Q96PU5",0.023 ± 0.063
6,"E3 ubiquitin-protein ligase NEDD4-like V203C, Q96PU5",-0.066 ± 0.097
7,"E3 ubiquitin-protein ligase NEDD4-like V203D, Q96PU5",-0.143 ± 0.073
8,"E3 ubiquitin-protein ligase NEDD4-like V203E, Q96PU5",-0.033 ± 0.068
9,"E3 ubiquitin-protein ligase NEDD4-like V203F, Q96PU5",-0.055 ± 0.069
10,"E3 ubiquitin-protein ligase NEDD4-like V203G, Q96PU5",-0.424 ± 0.053
11,"E3 ubiquitin-protein ligase NEDD4-like V203H, Q96PU5",0.016 ± 0.11
12,"E3 ubiquitin-protein ligase NEDD4-like V203I, Q96PU5",-0.293 ± 0.097
13,"E3 ubiquitin-protein ligase NEDD4-like V203K, Q96PU5",-0.064 ± 0.078
14,"E3 ubiquitin-protein ligase NEDD4-like V203M, Q96PU5",-0.096 ± 0.059
15,"E3 ubiquitin-protein ligase NEDD4-like V203P, Q96PU5",-0.368 ± 0.07
16,"E3 ubiquitin-protein ligase NEDD4-like V203Q, Q96PU5",0.019 ± 0.093
17,"E3 ubiquitin-protein ligase NEDD4-like V203R, Q96PU5",0.007 ± 0.054
18,"E3 ubiquitin-protein ligase NEDD4-like V203S, Q96PU5",-0.144 ± 0.066
19,"E3 ubiquitin-protein ligase NEDD4-like V203T, Q96PU5",-0.115 ± 0.092
20,"E3 ubiquitin-protein ligase NEDD4-like V203W, Q96PU5",-0.347 ± 0.078
21,"E3 ubiquitin-protein ligase NEDD4-like V203Y, Q96PU5",-0.227 ± 0.11
22,"E3 ubiquitin-protein ligase NEDD4-like V212A, Q96PU5",-0.102 ± 0.069
23,"E3 ubiquitin-protein ligase NEDD4-like V212C, Q96PU5",-0.097 ± 0.076
